Measurements as given in patent US20230212319A1, “NOVEL ANTIGEN BINDING DOMAINS AND SYNTHETIC ANTIGEN RECEPTORS INCORPORATING THE SAME” (University of Southern California, priority 2020, published 2023).

How the values were obtained:
Assay type in all cases: cell-based
Nalm6 cells = experiment: JNG assay, co-culture with Nalm6 cells; conditions: co-culture with Nalm6
Procedure: Cellular supernatant is collected and assayed for the induction of cytokines (e.g., IL2).
JNG (Jurkat cells expressing EGFP under an NFAT promoter) were infected with lentiviral vectors encoding different single chain and multi-chain SARs by spinfection in the presence of 8 µg/ml of Polybrene® (Sigma, Catalog no. H9268). The Jurkat-NFAT-GFP cells are engineered in such a way that the IL-2 promoter, which carries NFAT binding sites, is cloned upstream of the GFP gene. These cells have been used to study signaling via TCR and CAR. The different SARs were stably expressed in Jurkat NFAT-GFP cells by lentiviral mediated gene transfer, followed by selection with puromycin or blasticidin. No drug selection was used in case the construct lacked an antibiotic resistance gene. The SAR-expressing Jurkat-NFAT-GFP cells were cocultured with the target cells at E:T ratio of approximately 1:2 for approximately 4 hours to 18 hours. When the interaction between SIRs and their target antigen results in activation of the NFAT pathway, GFP expression is induced. […] GFP expression was monitored by FACS analysis. The Jurkat-NFAT-GFP (parental) cells were used as control. The structure of different constructs can be determined based on their names. For example, the construct CD8SP-CD19-hu-mROO5-1-vL-[hTCRa-C SDVP]-F-F2A-Spe-IgHSP-Apa-CD20-vHH-2HCD25-G4S-CDl9-hu-mROO5-1-vH-Mlu-[hTCRb-KACIAH]-F-P2A-PAC has the following modules from 5′ to 3′ direction: a CD8 signal peptide (CD8SP), the CD19 targeting hu-mROO5-1 vL fragment (CD19-hu-mROO5-1), Xho1 cloning site, human TCRa constant chain containing CSDVP mutations (hTCRa-CSDVP), Furine cleavage site (F), F2A ribosomal skip sequence (F2A), SpeI site, human IgH signal peptide (IgHSP), Apa I restriction enzyme site, camelid CD20-2HCD25-VHH module targeting CD20, BamHI restriction enzyme site, Glycinex4-serine linker (G4S), BstI restriction enzyme site, CD19-hu-mROO5-1-vH fragment targeting CD19, Mlu I restriction enzyme site, human TCRb constant chain containing KACIAH mutations ([hTCRb-KACIAH]), Furine cleavage site (F), P2A ribosomal skip sequence and Puromycin resistance gene (PAC). The sequence of the other constructs in the table can be similarly determined from their names and by referring to the different Tables of this disclosure that provide the names and SEQ ID NO of the different modules. Alternatively, the composition and modular architecture of the different SAR constructs can be determined from their sequences by bioinformatics tools, including using nucleic acid and amino acids homology searches. A SAR is considered positive in the assay in case the SAR expressing Jurkat-NFAT-GFP cells show greater % GFP positive cells when cultured with the target cell line as compared to parental Jurkat-NFAT-GFP cells. The signs +/-, +, 2+ etc. after the name of the cell lines indicate the relative degree of positivity on the Jurkat-NFAT-GFP assay as measured by the % GFP positive cells after culture of the SAR expressing Jurkat-NFAT-GFP cells with that cell line above the % GFP cells observed in parental Jurkat NFAT-GFP cells serving as controls. In general, the number +/-, +, 2+, 3+, 4+, 5+ refer to approximately 5%, 10%, 20%, 30%, 40% and 50% GFP positive cells. The % of GFP induction in the above assay is dependent not only the relative strength of the SAR but also, among other factors, on the relative level of expression of the SAR in the JNG cells and the relative level of expression of the target antigen in the target cell line. To control for the difference in gene transduction efficiency of the different SAR constructs, the experiment was conducted with JNG cells transduced with SAR constructs co-expressing a drug resistance gene (e.g., puromycin or PAC) followed by drug selection to generate a stable population of SAR-expressing cells. […]

L363 cells = experiment: JNG assay, co-culture with L363 cells; conditions: co-culture with L363
In short: (§1)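 Jurkat-NFAT-GFP (JNG) cells stably expressing SAR constructs via lentiviral transduction and puromycin/blasticidin selection were cocultured with target cells at E:T ~1:2 for ~4–18 h. NFAT-driven GFP was measured by FACS versus parental JNG cells; scores +/- to 5+ denote ~5–50% GFP-positive cells.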

RAJI cells = experiment: JNG assay, co-culture with RAJI cells; conditions: JNG cells expressing construct, co-culture with Raji
In short: as §1

Molecule | NFAT-GFP ASSAY: Nalm6 (Nalm6 cells) | NFAT-GFP ASSAY: L363 (L363 cells) | NFAT-GFP ASSAY: Raji (RAJI cells)
21985 (protein) MALPVTALLLPLALLLHAARPQLQLQESGPGLVKPSETLSLTCTVSGDSISSGDYYWGWIRQPPGKGLEWIGHIYYSGVTYYNPSLKSRVTISVDTSRNQFSLKLSSVTAADTAVYYCTREDSSNWRSRGQGTLVTVSSLEDLKNVFPPEVAVFEPSEAEISHTQKATLVCLATGFYPDHVELSWWVNGKEVHSGVCTDPQPLKEQPALNDSRYCLSSRLRVSATFWQNPRNHFRCQVQFYGLSENDEWTQDRAKPVTQIVSAEAWGRADCGFTSESYQQGVLSATILYEILLGKATLYAVLVSALVLMAMVKRKDSRGRAKRSGSGATNFSLLKQAGDVEENPGPTSMDWIWRILFLVGAATGAHSFEVQLLESGGGLIQPGGSLRLSCAASGFTFSSHAMTWVRQAPGKGLEWVSAISGSGDYTHYADSVKGRFTISRDNSKNTVYLQMNSLRAEDSAVYYCAKDEDGGSLLGHRGQGTLVTVSSTRIQNPDPAVYQLRDSKSSDKSVCLFTDFDSQTNVSQSKDSDVYITDKCVLDMRSMDFKSNSAVAWSNKSDFACANAFNNSIIPEDTFFPSPESSCDVKLVEKSFETDTNLNFQNLSVIGFRILLLKVAGFNLLMTLRLWSSRAKRSGSGVKQTLNFDLLKLAGDVESNPGPSRGHMTEYKPTVRLATRDDVPRAVRTLAAAFADYPATRHTVDPDRHIERVTELQELFLTRVGLDIGKVWVADDGAAVAVWTTPESVEAGAVFAEIGPRMAELSGSRLAAQQQMEGLLAPHRPKEPAWFLATVGVSPDHQGKGLGSAVVLPGVEAAERAGVPAFLETSAPRNLPFYERLGFTVTADVEVPEGPRTWCMTRKPGA | +/- (refer to approximately 5%, 10%, 20%, 30%, 40% and 50% GFP positive cells) |  | 
22089 (protein) MALPVTALLLPLALLLHAARPQLQLQESGPGLVKPSETLSLTCTVSGDSISSGDYYWGWIRQPPGKGLEWIGHIYYSGVTYYNPSLKSRVTISVDTSRNQFSLKLSSVTAADTAVYYCTREDSSNWRSRGQGTLVTVSSLEGSGRADCGFTSESYQQGVLSATILYEILLGKATLYAVLVSALVLMAMVKRKDSRGRAKRSGSGATNFSLLKQAGDVEENPGPTSMDWIWRILFLVGAATGAHSFEVQLLESGGGLIQPGGSLRLSCAASGFTFSSHAMTWVRQAPGKGLEWVSAISGSGDYTHYADSVKGRFTISRDNSKNTVYLQMNSLRAEDSAVYYCAKDEDGGSLLGHRGQGTLVTVSSTRIQNPDPAVYQLRDSKSSDKSVCLFTDFDSQTNVSQSKDSDVYITDKCVLDMRSMDFKSNSAVAWSNKSDFACANAFNNSIIPEDTFFPSPESSCDVKLVEKSFETDTNLNFQNLSVIGFRILLLKVAGFNLLMTLRLWSSRAKRSGSGVKQTLNFDLLKLAGDVESNPGPSRGHMTEYKPTVRLATRDDVPRAVRTLAAAFADYPATRHTVDPDRHIERVTELQELFLTRVGLDIGKVWVADDGAAVAVWTTPESVEAGAVFAEIGPRMAELSGSRLAAQQQMEGLLAPHRPKEPAWFLATVGVSPDHQGKGLGSAVVLPGVEAAERAGVPAFLETSAPRNLPFYERLGFTVTADVEVPEGPRTWCMTRKPGA |  | 2+ (refer to approximately 5%, 10%, 20%, 30%, 40% and 50% GFP positive cells) | + (refer to approximately 5%, 10%, 20%, 30%, 40% and 50% GFP positive cells)
22165 (protein) MALPVTALLLPLALLLHAARPACEVQLLESGGGLIQPGGSLRLSCAASGFTFSSHAMTWVRQAPGKGLEWVSAISGSGDYTHYADSVKGRFTISRDNSKNTVYLQMNSLRAEDSAVYYCAKDEDGGSLLGHRGQGTLVTVSSGTGGGGSGGGGSGGGGSEFDIQMTQSPSSLSASVGDRVTITCKASDHINNWLAWYQQKPGQAPKLLIYGATTLETGVPSRFSGSGSGTDYTLTISSLQPEDFATYYCQQSWNTPWTFGQGTKLEIKRLEDLKNVFPPEVAVFEPSEAEISHTQKATLVCLATGFYPDHVELSWWVNGKEVHSGVCTDPQPLKEQPALNDSRYCLSSRLRVSATFWQNPRNHFRCQVQFYGLSENDEWTQDRAKPVTQIVSAEAWGRADCGFTSESYQQGVLSATILYEILLGKATLYAVLVSALVLMAMVKRKDSRGRAKRSGSGATNFSLLKQAGDVEENPGPTSATMDWIWRILFLVGAATGAHSGPEVQLVESGGGLVQAGGSLRLSCAASGRTFSMGWFRQAPGKEREFVAAITYSGGSPYYADSVKGRFTISRDNAKNTVYLQMNSLKPEDTAVYYCAANPTYGSDWNAENWGQGTQVTVSSGSGGGGSGGGGSGGGGSFEQVQLQQPGAELVKPGASVKMSCKASGYAFSSYWINWMKQKPGQGLEWIGQIYPGDGDTNYNGKFKGRATLTADTSSSTAYMQLSSLTSEDSAVYFCARSITTVVGCAMDYWGQGTSVTVSSTRIQNPDPAVYQLRDSKSSDKSVCLFTDFDSQTNVSQSKDSDVYITDKCVLDMRSMDFKSNSAVAWSNKSDFACANAFNNSIIPEDTFFPSPESSCDVKLVEKSFETDTNLNFQNLSVIGFRILLLKVAGFNLLMTLRLWSSRAKRSGSGVKQTLNFDLLKLAGDVESNPGPSRGHMTEYKPTVRLATRDDVPRAVRTLAAAFADYPATRHTVDPDRHIERVTELQELFLTRVGLDIGKVWVADDGAAVAVWTTPESVEAGAVFAEIGPRMAELSGSRLAAQQQMEGLLAPHRPKEPAWFLATVGVSPDHQGKGLGSAVVLPGVEAAERAGVPAFLETSAPRNLPFYERLGFTVTADVEVPEGPRTWCMTRKPGA |  | Raji (+), L363 (+) (refer to approximately 5%, 10%, 20%, 30%, 40% and 50% GFP positive cells) | Raji (+), L363 (+) (refer to approximately 5%, 10%, 20%, 30%, 40% and 50% GFP positive cells)
22147 (protein) MALPVTALLLPLALLLHAARPACEVQLLESGGGLIQPGGSLRLSCAASGFTFSSHAMTWVRQAPGKGLEWVSAISGSGDYTHYADSVKGRFTISRDNSKNTVYLQMNSLRAEDSAVYYCAKDEDGGSLLGHRGQGTLVTVSSGTGGGGSGGGGSGGGGSEFDIQMTQSPSSLSASVGDRVTITCRASQDISNYLNWYQQKPGKAVKLLIYYTSILHSGVPSRFSGSGSGTDYTLTISSLQPEDFATYFCQQGNTLPWTFGGGTKVEIKLEADVSPKPTIFLPSIAETKLQKAGTYLCLLEKFFPDVIKIHWQEKKSNTILGSQEGNTMKTNDTYMKFSWLTVPEKSLDKEHRCIVRHENNKNGVDQEIIFPPIKTDVITMDPKDNCSKDANDTLLLQLTNTSAYYMYLLLLLKSVVYFAIITCCLLRRTAFCCNGEKSRAKRSGSGATNFSLLKQAGDVEENPGPTSMDWIWRILFLVGAATGAHSGPQVQLQESGGGLAQAGGSLRLSCAASGRTFSMGWFRQAPGKEREFVAAITYSGGSPYYASSVRGRFTISRDNAKNTVYLQMNSLKPEDTAVYYCAANPTYGSDWNAENWGQGTQVTVSSGSGGGGSGGGGSGGGGSFEVQLVESGGGLVKPGGSLKLSCAASGFAFSIYDMSWVRQAPGKGLEWVAYISSGGGTTYYPDTVKGRFTISRDNAKNTLYLQMSSLRAEDTAMYYCARHSGYGSSYGVLFAYWGQGTLVTVSSTRPHTKPSVFVMKNGTNVACLVKEFYPKDIRINLVSSKKITEFDPAIVISPSGKYNAVKLGKYEDSNSVTCSVQHDNKTVHSTDFEVKTDSTDHVKPKETENTKQPSKSCHKPKAIVHTEKVNMMSLTVLGLRMLFAKTVAVNFLLTAKLFFLRAKRSGSGVKQTLNFDLLKLAGDVESNPGPSRGHMTEYKPTVRLATRDDVPRAVRTLAAAFADYPATRHTVDPDRHIERVTELQELFLTRVGLDIGKVWVADDGAAVAVWTTPESVEAGAVFAEIGPRMAELSGSRLAAQQQMEGLLAPHRPKEPAWFLATVGVSPDHQGKGLGSAVVLPGVEAAERAGVPAFLETSAPRNLPFYERLGFTVTADVEVPEGPRTWCMTRKPGA |  | + (refer to approximately 5%, 10%, 20%, 30%, 40% and 50% GFP positive cells) | + (refer to approximately 5%, 10%, 20%, 30%, 40% and 50% GFP positive cells)
